Results: US20030036631

Key:
[1] = molecular target: GST-SiglecBMSL3cyto (wildtype)
[2] = molecular target: GST-L3cyto-Y667F
[3] = molecular target: GST-L3cyto-Y641alone
[4] = molecular target: L3cyto-Y691F

| Protein | phosphorylation of wildtype GST-SIGLECBMS-L3cyto (kinase ELISA, anti p-Tyr HRP) [1] | Decrease in Wild type Phosphorylation [2] [%] | Decrease in Wild type Phosphorylation [3] [%] | Decrease in Wild type Phosphorylation [4] [%] |
| --- | --- | --- | --- | --- |
| emt kinase (protein) MNNFILLEEQLIKKSQQKRRTSPSNFKVRFFVLTKASLAYFEDRHGKKRTLKGSIELSRIKCVEIVKSDISIPCHYKYPFQVVHDNYLLYVFAPDRESRQRWVLALKEETRNNNSLVPKYHPNFWMDGKWRCCSQLEKLATGCAQYDPTKNASKKPLPPTPEDNRRPLWEPEETVVIALYDYQTNDPQELALRRNEEYCLLDSSEIHWWRVQDRNGHEGYVPSSYLVEKSPNNLETYEWYNKSISRDKAEKLLLDTGKEGAFMVRDSRTAGTYTVSVFTKAVVSENNPCIKHYHIKETNDNPKRYYVAEKYVFDSIPLLINYHQHNGGGLVTRLRYPVCFGRQKAPVTAGLRYGKWVIDPSELTFVQEIGSGQFGLVHLGYWLNKDKVAIKTIREGAMSEEDFIEEAEVMMKLSHPKLVQLYGVCLEQAPICLVFEFMEHGCLSDYLRTQRGLFAAETLLGMCLDVCEGMAYLEEACVIHRDLAARNCLVGENQVIKVSDFGMTRFVLDDQYTSSTGTKFPVKWASPEVFSFSRYSSKSDVWSFGVLMWEVFSEGKIPYENRSNSEVVEDISTGFRLYKPRLASTHVYQIMNHCWKERPEDRPAFSRLLRQLAEIAESGL | emt(65%) | 70 |  |  |
| ZAP70 kinase (protein) MPDPAAHLPFFYGSISRAEAEEHLKLAGMADGLFLLRQCLRSLGGYVLSLVHDVRFHHFPIERQLNGTYAIAGGKAHCGPAELCEFYSRDPDGLPCNLRKPCNRPSGLEPQPGVFDCLRDAMVRDYVRQTWKLEGEALEQAIISQAPQVEKLIATTAHERMPWYHSSLTREEAERKLYSGAQTDGKFLLRPRKEQGTYALSLIYGKTVYHYLISQDKAGKYCIPEGTKFDTLWQLVEYLKLKADGLIYCLKEACPNSSASNASGAAAPTLPAHPSTLTHPQRRIDTLNSDGYTPEPARITSPDKPRPMPMDTSVYESPYSDPEELKDKKLFLKRDNLLIADIELGCGNFGSVRQGVYRMRKKQIDVAIKVLKQGTEKADTEEMMREAQIMHQLDNPYIVRLIGVCQAEALMLVMEMAGGGPLHKFLVGKREEIPVSNVAELLHQVSMGMKYLEEKNFVHRDLAARNVLLVNRHYAKISDFGLSKALGADDSYYTARSAGKWPLKWYAPECINFRKFSSRSDVWSYGVTMWEALSYGQKPYKKMKGPEVMAFIEQGKRMECPPECPPELYALMSDCWIYKWEDRPDFLTVEQRMRACYYSLASKVEGPPGSTQKAEAACA | ZAP70 (20%) | 100 | 20 |  |
| JAK3 kinase (protein) MAPPSEETPLIPQRSCSLLSTEAGALHVLLPARGPGPPQRLSFSFGDHLAEDLCVQAAKASGILPVYHSLFALATEDLSCWFPPSHIFSVEDASTQVLLYRIRFYFPNWFGLEKCHRFGLRKDLASAILDLPVLEHLFAQHRSDLVSGRLPVGLSLKEQGECLSLAVLDLARMAREQAQRPGELLKTVSYKACLPPSLRDLIQGLSFVTRRRIRRTVRRALRRVAACQADRHSLMAKYIMDLERLDPAGAAETFHVGLPGALGGHDGLGLLRVAGDGGIAWTQGEQEVLQPFCDFPEIVDISIKQAPRVGPAGEHRLVTVTRTDNQILEAEFPGLPEALSFVALVDGYFRLTTDSQHFFCKEVAPPRLLEEVAEQCHGPITLDFAINKLKTGGSRPGSYVLRRSPQDFDSFLLTVCVQNPLGPDYKGCLIRRSPTGTFLLVGLSRPHSSLRELLATCWDGGLHVDGVAVTLTSCCIPRPKEKSNLIVVQRGHSPPTSSLVQPQSQYQLSQMTFHKIPADSLEWHENLGHGSFTKIYRGCRHEVVDGEARKTEVLLKVMDAKHKNCMESFLEAASLMSQVSYRHLVLLHGVCMAGDSTMVQEFVHLGAIDMYLRKRGHLVPASWKLQVVKQLAYALNYLEDKGLPHGNVSARKVLLAREGADGSPPFIKLSDPGVSPAVLSLEMLTDRIPWVAPECLREAQTLSLEADKWGFGATVWEVFSGVTMPISALDPAKKLQFYEDRQQLPAPKWTELALLIQQCMAYEPVQRPSFRAVIRDLNSLISSDYELLSDPTPGALAPRDGLWNGAQLYACQDPTIFEERHLKYISQLGKGNFGSVELCRYDPLGDNTGALVAVKQLQHSGPDQQRDFQREIQILKALHSDFIVKYRGVSYGPGRQSLRLVMEYLPSGCLRDFLQRHRARLDASRLLLYSSQICKGMEYLGSRRCVHRDLAARNILVESEAHVKIADFGLAKLLPLDKDYYVVREPGQSPIFWYAPESLSDNIFSRQSDVWSFGVVLYELFTYCDKSCSPSAEFLRMMGCERDVPALCRLLELLEEGQRLPAPPACPAEVHELMKLCWAPSPQDRPSFSALGPQLDMLWSGSRGCETHAFTAHPEGKHHSLSFS | JAK3 (92%) | 50 |  | 25 |
